{"source": "paper PMC2940226", "about": "(Neurobiology of disease, 2010)", "target": "GABAA receptor γ2 subunit (rat (endogenous in hippocampus), UniProt P18508 39-466)", "sequence (P18508 39-466)": "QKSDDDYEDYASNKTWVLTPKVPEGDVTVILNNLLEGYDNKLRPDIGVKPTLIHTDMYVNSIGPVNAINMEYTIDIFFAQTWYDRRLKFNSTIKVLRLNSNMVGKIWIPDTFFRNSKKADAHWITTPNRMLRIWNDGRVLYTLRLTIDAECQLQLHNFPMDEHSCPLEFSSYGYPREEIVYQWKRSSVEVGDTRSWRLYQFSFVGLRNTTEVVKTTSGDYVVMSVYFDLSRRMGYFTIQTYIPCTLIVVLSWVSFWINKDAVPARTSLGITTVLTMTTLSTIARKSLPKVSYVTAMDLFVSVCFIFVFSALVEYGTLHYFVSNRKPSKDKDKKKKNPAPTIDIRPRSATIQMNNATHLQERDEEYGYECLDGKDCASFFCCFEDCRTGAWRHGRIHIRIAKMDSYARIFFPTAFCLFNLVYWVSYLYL", "assay": "co-IP", "data": [{"binder": "GABAA receptor α4 subunit (natural protein, rat (endogenous in hippocampus), UniProt P28471 36-552, looked up) QNSKDEKLCPENFTRILDSLLDGYDNRLRPGFGGPVTEVKTDIYVTSFGPVSDVEMEYTMDVFFRQTWIDKRLKYDGPIEILRLNNMMVTKVWTPDTFFRNGKKSVSHNMTAPNKLFRIMRNGTILYTMRLTISAECPMRLVDFPMDGHACPLKFGSYAYPKSEMIYTWTKGPEKSVEVPKESSSLVQYDLIGQTVSSETIKSITGEYIVMTVYFHLRRKMGYFMIQTYIPCIMTVILSQVSFWINKESVPARTVFGITTVLTMTTLSISARHSLPKVSYATAMDWFIAVCFAFVFSALIEFAAVNYFTNIQMQKAKKKISKPPPEVPAAPVLKEKHTETSLQNTHANLNMRKRTNALVHSESDVNSRTEVGNHSSKTTAAQESSETTPKAHLASSPNPFSRANAAETISAAARGLSSAASPSPHGTLQPAPLRSASARPAFGARLGRIKTTVNTTGVPGNVSATPPPSAPPPSGSGTSKIDKYARILFPVTFGAFNMVYWVVYLSKDTMEKSESLM", "values": [{"measurement": "ratio of the α4-γ2 co-precipitation (normalised α4 to γ2), control animals", "value": "0.55 ± 0.02"}, {"measurement": "ratio of the α4-γ2 co-precipitation (normalised α4 to γ2), epileptic animals", "value": "1.12 ± 0.24"}]}]}
